Our source for the protein stability index values is the supplement of paper PMC10567573.

± gives the standard deviation.

The series in a line: protein stability index of a GFP-peptide fusion (GPS, HEK-293T) (PSI 1-6); higher = more stable. The note with it: c terminus: a fixed tail appended.
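Note: 24-mer peptide tiles fused after GFP, lentivirally expressed, FACS-sorted into six equal bins by GFP/DsRed ratio, decoded by Illumina sequencing, PSI is the read-weighted mean bin number.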

Consider LSVLQIAQQDLAPDPDAWLRALGE [FANCE], for which the protein stability index was found to be 2.81 ± 0.39 (treatment: DMSO) and 2.75 ± 0.3 (treatment: MLN4924 1 uM, 8 h).

Take LTFAKSSWARQESLQERKQALYEY [AUP1]: the protein stability index reads like this: (treatment: DMSO) 2.78 ± 0.43; (treatment: MLN4924 1 uM, 8 h) 2.67 ± 0.39.

Consider LTQKRSQLVKKLNDSDHQSSTSPL [VPS39], for which the protein stability index is, setting by setting: (treatment: DMSO) 4.8 ± 0.23; (treatment: MLN4924 1 uM, 8 h) 4.69 ± 0.29.

In the case of LVENIIDIYKQECSSRPLQKGSHP [TRIM63], the protein stability index is, setting by setting: (treatment: DMSO) 2.36 ± 0.17; (treatment: MLN4924 1 uM, 8 h) 2.56 ± 0.13.

For LVLLIIIGIPLFFLELAVGQRIRR [SLC6A17], the protein stability index was determined as 3.2 ± 0.25 (treatment: DMSO) and 3.2 ± 0.5 (treatment: MLN4924 1 uM, 8 h).

Take LVVLVVAVVASSVNSYYSSPAQQV [TOR1AIP2]: the protein stability index runs as follows: (treatment: DMSO) 3.22 ± 0.11; (treatment: MLN4924 1 uM, 8 h) 3.21 ± 0.23.

For the sequence LVWIRGPGFGCKAVRCASGRCTVR [SDE2], the protein stability index is, setting by setting: (treatment: DMSO) 2.37 ± 0.87; (treatment: MLN4924 1 uM, 8 h) 2.36 ± 0.42.

Take LYAFFTRTHGDMHSLVRSRHRIPE [TRIB3]: the protein stability index was determined as 2.18 ± 0.046 (treatment: DMSO) and 2.26 ± 0.45 (treatment: MLN4924 1 uM, 8 h).

Take LYQTELVENECYQVFLDRINRADY [TOR1AIP2]: the protein stability index is, setting by setting: (treatment: DMSO) 2.45 ± 0.27; (treatment: MLN4924 1 uM, 8 h) 2.71 ± 0.15.

Sequence LYSLTLYGLRGPHKADSIQGTART [TNXB] gave a protein stability index (treatment: DMSO) of 2.11 ± 0.21 and a protein stability index (treatment: MLN4924 1 uM, 8 h) of 2.48 ± 0.3.

In the case of LYYQSQELPNGSVKEAPAPTPTSL [PDZK1], the protein stability index runs as follows: (treatment: DMSO) 3.87 ± 0.27; (treatment: MLN4924 1 uM, 8 h) 3.93 ± 0.19.

Take MAAEIHSRPQSSRPVLLSKIEGHQ [WDFY1]: the protein stability index came out at 3.84 ± 0.13 (treatment: DMSO) and 3.88 ± 0.23 (treatment: MLN4924 1 uM, 8 h).

In the case of MAAMETETAPLTLESLPTDPLLLI [FBXO3], the protein stability index by setting is: (treatment: DMSO) 3.44 ± 0.25; (treatment: MLN4924 1 uM, 8 h) 3.43 ± 0.18.

Turning to MACPYSVLISGDIKDRLKKKEDCL [FAM98B], the protein stability index runs as follows: (treatment: DMSO) 2.87 ± 0.071; (treatment: MLN4924 1 uM, 8 h) 3.49 ± 0.38.

Turning to MAGAPDERRRGPAAGEQLQQQHVS [ATP23], the protein stability index by setting is: (treatment: DMSO) 5.058 ± 0.01; (treatment: MLN4924 1 uM, 8 h) 4.57 ± 0.25.

Take MAGLSKEPNTLRAPRVRTAFTMEQ [VENTX]: the protein stability index is 3.54 ± 0.28 (treatment: DMSO) and 3.75 ± 0.22 (treatment: MLN4924 1 uM, 8 h).

Take MAQYKGAASEAGRAMHLMKKREKQ [FAM50A]: the protein stability index was found to be 4.7 ± 0.34 (treatment: DMSO) and 4.47 ± 0.4 (treatment: MLN4924 1 uM, 8 h).

On to MDADEGQDMSQVSGKESPPVSDTP [IKZF1], for which the protein stability index reads like this: (treatment: DMSO) 5.35 ± 0.28; (treatment: MLN4924 1 uM, 8 h) 5.28 ± 0.6.

In turn, MDDDFGVVKEEISDDNAKLPCFNG [DVL3] came in with a protein stability index (treatment: DMSO) of 5.18 ± 0.19 and a protein stability index (treatment: MLN4924 1 uM, 8 h) of 5.21 ± 0.15.

On to MEALKLQPGLSFLNLGSGTGYLST [PCMTD1], for which the protein stability index turned out to be 2.3 ± 0.2 (treatment: DMSO) and 2.31 ± 0.22 (treatment: MLN4924 1 uM, 8 h).

For MEEMEEELKCPVCGSFYREPIILP [TRIM9], the protein stability index (treatment: DMSO) was 4.05 ± 0.35 and the protein stability index (treatment: MLN4924 1 uM, 8 h) was found to be 4.38 ± 0.28.

Take MEGTPTIKSKKKLLQIIDTTLLKC [VPS39]: the protein stability index is 2.25 ± 0.24 (treatment: DMSO) and 2.36 ± 0.25 (treatment: MLN4924 1 uM, 8 h).

Take MELSWGQSPGQPVQGGSEAWGPGT [TEX19]: the protein stability index by setting is: (treatment: DMSO) 3.86 ± 0.53; (treatment: MLN4924 1 uM, 8 h) 4.06 ± 0.36.

For the sequence MGGAVSAGEDNDELIDNLKEAQYI [PCMTD2], the protein stability index is, setting by setting: (treatment: DMSO) 5.1 ± 0.15; (treatment: MLN4924 1 uM, 8 h) 4.95 ± 0.21.

For MGQWQLEVGDPAPLGAGNLGPELI [DPCD], the protein stability index was determined as 3.42 ± 0.23 (treatment: DMSO) and 3.48 ± 0.2 (treatment: MLN4924 1 uM, 8 h).

MGSGTSTQHHFAFQNAERAFKAAA [PPEF2]: the protein stability index runs as follows: (treatment: DMSO) 3.46 ± 0.43; (treatment: MLN4924 1 uM, 8 h) 2.98 ± 0.25.

Consider MKVKVIPVLEDNYMYLVIEELTRE [HAGHL], for which the protein stability index (treatment: DMSO) is 2.94 ± 0.55 and the protein stability index (treatment: MLN4924 1 uM, 8 h) amounted to 2.95 ± 0.56.

Take MLSPQRVAAAASRGADDAMESSKP [ATL3]: the protein stability index came out at 5.21 ± 0.22 (treatment: DMSO) and 5.25 ± 0.25 (treatment: MLN4924 1 uM, 8 h).

In the case of MMRGLSYSLTTSSTHKSSLCKVEI [RAB40A], the protein stability index (treatment: DMSO) amounted to 2.31 ± 0.59 and the protein stability index (treatment: MLN4924 1 uM, 8 h) was determined as 2.28 ± 0.46.

For the sequence MNPYNAVLTKKFQVTMRGLLSCLS [FBXO39], the protein stability index (treatment: DMSO) came to 2.7 ± 0.75 and the protein stability index (treatment: MLN4924 1 uM, 8 h) turned out to be 2.72 ± 0.23.

Turning to MQEFFGLKVTGKPDAETLKVMKQP [MMP1], the protein stability index stood at 3.47 ± 0.15 (treatment: DMSO) and 3.53 ± 0.34 (treatment: MLN4924 1 uM, 8 h).

As to MQRKQSLGKPDQKDLNENLAATQG [DLC1], the protein stability index is, setting by setting: (treatment: DMSO) 5.11 ± 0.37; (treatment: MLN4924 1 uM, 8 h) 4.99 ± 0.45.

Take MRDLYMKNGQGFALVYSITAQSTF [RAP1B]: the protein stability index by setting is: (treatment: DMSO) 2.85 ± 0.79; (treatment: MLN4924 1 uM, 8 h) 2.78 ± 0.6.

MSGDGATEQAAEYVPEKVKKAEKK [CSTF3]: the protein stability index runs as follows: (treatment: DMSO) 5.52 ± 0.18; (treatment: MLN4924 1 uM, 8 h) 5.65 ± 0.15.

For the sequence MSGQTLTDRIAAAQYSVTGSAVAR [SNAP91], the protein stability index stood at 4 ± 0.19 (treatment: DMSO) and 3.98 ± 0.2 (treatment: MLN4924 1 uM, 8 h).

Sequence MSPGDCPPETTETPKCSSPRGQEG [YJU2B] registered a protein stability index (treatment: DMSO) of 5.44 ± 0.43 and a protein stability index (treatment: MLN4924 1 uM, 8 h) of 5.5 ± 0.11.

Regarding MSPLQAMSSYTVAGRNVLRWDLSP [NLN], the protein stability index reads like this: (treatment: DMSO) 2.06 ± 0.31; (treatment: MLN4924 1 uM, 8 h) 2.55 ± 0.42.
